Reference: publication PMC3188359 (Biochemistry, 2000)
Like-named read-outs stand apart in the source and are kept apart here.

Tests used:
[1] = molecular target: Bacillus stearothermophilus DnaB (replicative helicase) (Bacillus stearothermophilus NCA 1503) (UniProt Q9X4C9); test: SEC
SEC [2] = molecular target: the molecule itself; test: SEC
SEC [3] = molecular target: the molecule itself; test: SEC; remark: listed apart in the source
SEC [4] = molecular target: the molecule itself; test: SEC; remark: listed apart in the source
[5] = molecular target: T1, Bacillus stearothermophilus DnaB (replicative helicase) (Bacillus stearothermophilus NCA 1503, UniProt Q9X4C9 1-454); test: SEC + AUC
T1 sequence (looked up): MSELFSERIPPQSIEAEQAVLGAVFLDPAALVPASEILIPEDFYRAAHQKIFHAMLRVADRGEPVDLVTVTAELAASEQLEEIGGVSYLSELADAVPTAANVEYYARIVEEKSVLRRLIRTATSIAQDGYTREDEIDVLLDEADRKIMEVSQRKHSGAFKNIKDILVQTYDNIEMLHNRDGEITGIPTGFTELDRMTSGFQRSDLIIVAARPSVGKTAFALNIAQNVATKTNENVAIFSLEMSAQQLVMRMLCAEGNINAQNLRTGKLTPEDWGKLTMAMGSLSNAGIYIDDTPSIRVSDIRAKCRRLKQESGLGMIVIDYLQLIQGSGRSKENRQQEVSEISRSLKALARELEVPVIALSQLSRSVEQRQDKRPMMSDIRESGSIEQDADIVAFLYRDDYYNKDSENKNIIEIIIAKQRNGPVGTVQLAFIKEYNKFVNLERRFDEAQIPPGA

P16, C-terminal 16 kDa fragment of B. stearothermophilus DnaG (from UniProt Q9X4D0 451-597) (domain or fragment)
stoichiometry N (P16 molecules per DnaB hexamer) [1]: 3

B1: P17, N-terminal 17 kDa fragment of B. stearothermophilus DnaB (domain or fragment, Bacillus stearothermophilus NCA 1503, UniProt Q9X4C9 1-154, looked up)
chain: MSELFSERIPPQSIEAEQAVLGAVFLDPAALVPASEILIPEDFYRAAHQKIFHAMLRVADRGEPVDLVTVTAELAASEQLEEIGGVSYLSELADAVPTAANVEYYARIVEEKSVLRRLIRTATSIAQDGYTREDEIDVLLDEADRKIMEVSQRK
stoichiometry N (SEC [2]): 2

B2: P33, C-terminal 33 kDa fragment of B. stearothermophilus DnaB (domain or fragment, Bacillus stearothermophilus NCA 1503, UniProt Q9X4C9 155-454, looked up)
chain: HSGAFKNIKDILVQTYDNIEMLHNRDGEITGIPTGFTELDRMTSGFQRSDLIIVAARPSVGKTAFALNIAQNVATKTNENVAIFSLEMSAQQLVMRMLCAEGNINAQNLRTGKLTPEDWGKLTMAMGSLSNAGIYIDDTPSIRVSDIRAKCRRLKQESGLGMIVIDYLQLIQGSGRSKENRQQEVSEISRSLKALARELEVPVIALSQLSRSVEQRQDKRPMMSDIRESGSIEQDADIVAFLYRDDYYNKDSENKNIIEIIIAKQRNGPVGTVQLAFIKEYNKFVNLERRFDEAQIPPGA
stoichiometry N (SEC [3]): 6 | stoichiometry N (SEC [4]): 2

B3: Bacillus stearothermophilus DnaG (primase) (enzyme, Bacillus stearothermophilus NCA 1503, UniProt Q9X4D0 1-597, looked up)
chain: MGHRIPEETIEAIRRGVDIVDVIGEYVQLKRQGRNYFGLCPFHGEKTPSFSVSPEKQIFHCFGCGAGGNAFTFLMDIEGIPFVEAAKRLAAKAGVDLSVYELDVRGRDDGQTDEAKAMTEAHALLKRFYHHLLVHTKEGQAALDYLQARGWTKETIDRFEIGYAPDAPDAAAKLLESHSFSLPVMEKAGLLTKKEDGRYVGRFRNRIMFPIHDHRGETVGFSGRLLGEGHPKYVNSPETPVFRKGAILYHFHAARVPIRKRQEALLVEGFADVISAAQAGIDYAIATMGTSLTEEQARILRPCDTITICYDGDRAGIEAAWAAAEQLSALGCRVKVASLPNGLDPDEYIRVYGGERFAGEAGCRRPLVAFKMAYLRRGKNLQHEGERLRYIDEALREIGKLSSPVEQDYYLRQLAEEFSLSLSALHEQLSRSQRERTKPREAPDGETARPMLAKKLLPAFQNAERLLLAHMMRSRDVALVVQERIGGRFNIEEHRALAAYIYAFYEEGHEADPGALISRIPGELQPLASDVSLLLIADDVSEQELEDYIRHVLNRPKWLMLKVKEQEKTEAERRKDFLTAARIAKEMIEMKKMLSSS
stoichiometry N [5]: 3 DnaG molecules per DnaB hexamer
